Results reported in patent US20240199746A1 (published 2024).
Where a chain is given by its changes, count along the chain named.

T1: Ax1 protein, extracellular domain (human, UniProt P30530 26-451)
T1 construct: extracellular domain; also called Axl; Ark
T1 sequence (looked up): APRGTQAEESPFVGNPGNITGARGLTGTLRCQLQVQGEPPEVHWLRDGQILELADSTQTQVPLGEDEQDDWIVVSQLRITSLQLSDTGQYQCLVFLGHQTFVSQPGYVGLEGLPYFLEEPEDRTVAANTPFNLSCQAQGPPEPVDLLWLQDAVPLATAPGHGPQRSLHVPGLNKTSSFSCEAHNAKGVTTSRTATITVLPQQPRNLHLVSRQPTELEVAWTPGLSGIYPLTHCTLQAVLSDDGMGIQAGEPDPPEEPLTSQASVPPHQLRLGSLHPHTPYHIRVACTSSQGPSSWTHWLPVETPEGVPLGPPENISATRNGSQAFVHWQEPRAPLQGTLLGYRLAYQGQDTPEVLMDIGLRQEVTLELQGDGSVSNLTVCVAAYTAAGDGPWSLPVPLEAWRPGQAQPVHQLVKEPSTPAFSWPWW

B1: LC-H091V (antibody, V domains shown)
VH: EVQLVQSGAEVKKPGATVKISCKVSGYSFTGHTMNWIRQPPGKGLEWIGLIKPSNGGTSYNQKFKGRVTISADKSISTAYLQWSSLKASDTAMYYCAHGHYESYFAMDYWGQGTLVTVSS
VL: DIQMTQSPSSLSASVGDRVTITCKASQDVSSAVAWYQQKPGQAPRLLIYWASTRHTGVPSRFSGSGSGTEFTLTISSLQPDDFATYYCQEVFSTPLTFGQGTKVEIK
notes: CPE single point mutant
B2: LC-P095E (antibody, V domains shown)
VH: B1 VH
VL: B1 VL with V91H, P95E
notes: CPE single point mutant
B3: LC-V029G (antibody, V domains shown)
VH: B1 VH
VL: B1 VL with V29G, V91H
notes: CPE single point mutant
B4: LC-T097I (antibody, V domains shown)
VH: B1 VH
VL: B1 VL with V91H, T97I
notes: CPE single point mutant
B5: LC-P095S (antibody, V domains shown)
VH: B1 VH
VL: B1 VL with V91H, P95S
notes: CPE single point mutant
B6: LC-W050F (antibody, V domains shown)
VH: B1 VH
VL: B1 VL with W50F, V91H
notes: CPE single point mutant
B7: LC-P095A (antibody, V domains shown)
VH: B1 VH
VL: B1 VL with V91H, P95A
notes: CPE single point mutant
B8: LC-V029D (antibody, V domains shown)
VH: B1 VH
VL: B1 VL with V29D, V91H
notes: CPE single point mutant
B9: LC-P095H (antibody, V domains shown)
VH: B1 VH
VL: B1 VL with V91H, P95H
notes: CPE single point mutant
B10: LC-P095D (antibody, V domains shown)
VH: B1 VH
VL: B1 VL with V91H, P95D
notes: CPE single point mutant
B11: LC-V029W (antibody, V domains shown)
VH: B1 VH
VL: B1 VL with V29W, V91H
notes: CPE single point mutant
B12: LC-P095T (antibody, V domains shown)
VH: B1 VH
VL: B1 VL with V91H, P95T
notes: CPE single point mutant
B13: LC-P095W (antibody, V domains shown)
VH: B1 VH
VL: B1 VL with V91H, P95W
notes: CPE single point mutant
B14: LC-V029N (antibody, V domains shown)
VH: B1 VH
VL: B1 VL with V29N, V91H
notes: CPE single point mutant
B15: LC-H091Y (antibody, V domains shown)
VH: B1 VH
VL: B1 VL with V91Y
notes: CPE single point mutant
B16: LC-P095V (antibody, V domains shown)
VH: B1 VH
VL: B1 VL with V91H, P95V
notes: CPE single point mutant
B17: LC-P095K (antibody, V domains shown)
VH: B1 VH
VL: B1 VL with V91H, P95K
notes: CPE single point mutant
B18: LC-P095C (antibody, V domains shown)
VH: B1 VH
VL: B1 VL with V91H, P95C
notes: CPE single point mutant

target: T1, Ax1 protein, extracellular domain; assay: ELISA, mutant diluted 1:3
Outline: (§1)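 Single-point-mutant antibody library from Comprehensive Positional Evolution, screened by ELISA for selective binding to the Ax1 extracellular domain at pH 6.0 over pH 7.4. Mutant antibodies tested at 1:3 and 1:9 dilutions.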

Binder | Affinity ELISA CPE mutant ratio (1:3, pH 6.0/7.4)
B1 | 4.13
B2 | 7.12
B3 | 1.94
B4 | 3.09
B5 | 2.84
B6 | 2.25
B7 | 2.52
B8 | 2.88
B9 | 2.5
B10 | 3.95
B11 | 2.31
B12 | 2.5
B13 | 2.15
B14 | 2.6
B15 | 3.93
B16 | 1.87
B17 | 3.84
B18 | 2.35

target: T1, Ax1 protein, extracellular domain; assay: ELISA, mutant diluted 1:9
Outline: as §1

Binder | Affinity ELISA CPE mutant ratio (1:9, pH 6.0/7.4)
B1 | 1.17
B2 | 7.51
B3 | 1.8
B4 | 4.05
B5 | 3.51
B6 | 3.5
B7 | 2.99
B8 | 2.68
B9 | 2.75
B10 | 2.89
B11 | 2.35
B12 | 2.09
B13 | 2.26
B14 | 2.65
B15 | 5.13
B16 | 2.13
B17 | 3.47
B18 | 2.63
